Experimental data: patent US11419948B2, “Functionalized microgels with fibrin binding elements” (Georgia Tech Research Corporation, priority 2013, dated 2022)

T1: fibrin clots (Homo sapiens, UniProt P02671+P02675+P02679)
T1 sequence (P02671 36-866 limits assumed): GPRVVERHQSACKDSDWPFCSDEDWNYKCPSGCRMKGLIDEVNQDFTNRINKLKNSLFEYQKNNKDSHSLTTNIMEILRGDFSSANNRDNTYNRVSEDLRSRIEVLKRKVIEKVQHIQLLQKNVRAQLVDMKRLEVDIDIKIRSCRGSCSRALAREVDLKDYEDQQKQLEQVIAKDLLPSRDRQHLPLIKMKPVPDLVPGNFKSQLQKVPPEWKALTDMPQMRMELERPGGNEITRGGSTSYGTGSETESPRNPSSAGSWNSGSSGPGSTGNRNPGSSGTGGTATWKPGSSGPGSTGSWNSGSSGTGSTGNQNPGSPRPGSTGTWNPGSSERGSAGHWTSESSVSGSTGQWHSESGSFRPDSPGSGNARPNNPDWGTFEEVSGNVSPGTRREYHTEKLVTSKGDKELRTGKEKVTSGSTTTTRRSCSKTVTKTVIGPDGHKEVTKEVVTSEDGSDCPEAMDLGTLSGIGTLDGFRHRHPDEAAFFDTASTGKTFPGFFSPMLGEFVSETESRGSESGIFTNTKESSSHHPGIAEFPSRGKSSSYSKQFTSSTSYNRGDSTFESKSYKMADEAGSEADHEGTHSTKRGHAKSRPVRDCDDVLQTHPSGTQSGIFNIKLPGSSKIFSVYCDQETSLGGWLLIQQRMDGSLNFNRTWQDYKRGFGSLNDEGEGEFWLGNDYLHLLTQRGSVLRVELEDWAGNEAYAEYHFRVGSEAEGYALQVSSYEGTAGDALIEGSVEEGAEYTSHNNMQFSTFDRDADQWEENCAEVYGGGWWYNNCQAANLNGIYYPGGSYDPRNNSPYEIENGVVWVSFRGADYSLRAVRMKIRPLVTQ
T1 sequence (P02675 45-491 limits assumed): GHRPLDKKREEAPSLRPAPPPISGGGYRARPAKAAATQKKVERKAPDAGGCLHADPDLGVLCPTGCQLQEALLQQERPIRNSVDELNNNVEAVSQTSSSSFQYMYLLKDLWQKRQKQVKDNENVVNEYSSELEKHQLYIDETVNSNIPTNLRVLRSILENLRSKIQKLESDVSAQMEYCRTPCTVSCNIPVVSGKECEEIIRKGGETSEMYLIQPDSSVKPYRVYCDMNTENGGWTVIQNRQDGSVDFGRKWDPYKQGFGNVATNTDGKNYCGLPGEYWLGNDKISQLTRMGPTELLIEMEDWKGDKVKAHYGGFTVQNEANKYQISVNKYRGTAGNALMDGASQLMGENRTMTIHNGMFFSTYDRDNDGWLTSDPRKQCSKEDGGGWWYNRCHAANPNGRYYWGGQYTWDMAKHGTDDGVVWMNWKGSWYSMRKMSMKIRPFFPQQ
T1 sequence (P02679 27-453): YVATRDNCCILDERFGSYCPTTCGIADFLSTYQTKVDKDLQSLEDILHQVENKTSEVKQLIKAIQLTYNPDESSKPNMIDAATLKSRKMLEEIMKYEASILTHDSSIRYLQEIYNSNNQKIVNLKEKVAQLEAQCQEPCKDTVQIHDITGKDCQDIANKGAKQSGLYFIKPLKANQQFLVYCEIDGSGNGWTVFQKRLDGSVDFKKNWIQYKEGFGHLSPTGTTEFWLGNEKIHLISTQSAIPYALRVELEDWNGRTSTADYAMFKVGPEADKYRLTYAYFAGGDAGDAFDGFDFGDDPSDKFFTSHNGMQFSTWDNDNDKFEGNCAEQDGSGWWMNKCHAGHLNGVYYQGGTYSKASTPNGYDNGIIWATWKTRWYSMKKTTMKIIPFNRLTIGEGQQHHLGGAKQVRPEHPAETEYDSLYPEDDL

B1: PLPs: ultra-low crosslinked pNIPAm-AAc microgels conjugated to fibrin-specific sdFv H6 (conjugate)
VH: QVQLLESGGGLVQPGGSLRLSCAASGDRFTHNDMGWVRQAPGKGLEWVSTIPTTDGSTYYADSVKGRFTISRDNSKSTLYLQMNSLRAEDTAVYYCATGYMWKAPAYVKYWGQGTLVTVSSAAAEQKLISEEDLNSAAHYTDIG
B2: H6: fibrin-specific human sdFv clone from phage biopanning, SEQ ID NO: 1 (protein)
VHH: QVQLLESGGGLVQPGGSLRLSCAASGDRFTHNDMGWVRQAPGKGLEWVSTIPTTDGSTYYADSVKGRFTISRDNSKSTLYLQMNSLRAEDTAVYYCATGYMWKAPAYVKYWGQGTLVTVSSAAAEQKLISEEDLNSAAHYTDIG

Assays:
fibrin clots = biological target: T1, fibrin clots; experiment: Clot polymerization/degradation assay (thrombin, tPA, plasminogen; turbidity); type: biochemical; details: versus control clots or clots with S11-ULC microgels
Description: Thrombin-initiated fibrin polymerization and degradation assays were used to evaluate clotting rates and persistence in the presence of H6 and S11 (control) ULC microgels at different microgel and fibrinogen concentrations. Competing polymerization and degradation reactions were created with a 96 well plate, and a final volume of 100 μL per well. Two solutions were made, a fibrinogen-microgel solution that was loaded initially, and a thrombin-tPA (tissue Plasminogen Activator)-plasminogen solution that was added in a 1:1 volume ratio. Final concentrations in each well were 2 mg/mL microgel and 2 mg/mL of fibrinogen, 5 mMol Ca^+, 0.25 U/mL of human thrombin (Enzyme Research Laboratories, Inc., South Bend, Ind.), 0.29 μg/mL of tissue Plasminogen Activator(tPA), and 10.8 μg/mL of Plasminogen. The remainder of the volume in the thrombin/tPA/plasminogen solution was made up of 25 mM Hepes, 150 mM NaCl buffer. Turbidity curves were be generated from absorbance measurements (SpectraMax M2 Microplate Reader, Molecular Devices, Sunnyvale, Calif.) at 350 nm, with reads taken every thirty seconds.

BSA = BSA (Bos taurus, UniProt P02769); experiment: SPR on BSA surface; type: binding
Chain of BSA (P02769 25-607): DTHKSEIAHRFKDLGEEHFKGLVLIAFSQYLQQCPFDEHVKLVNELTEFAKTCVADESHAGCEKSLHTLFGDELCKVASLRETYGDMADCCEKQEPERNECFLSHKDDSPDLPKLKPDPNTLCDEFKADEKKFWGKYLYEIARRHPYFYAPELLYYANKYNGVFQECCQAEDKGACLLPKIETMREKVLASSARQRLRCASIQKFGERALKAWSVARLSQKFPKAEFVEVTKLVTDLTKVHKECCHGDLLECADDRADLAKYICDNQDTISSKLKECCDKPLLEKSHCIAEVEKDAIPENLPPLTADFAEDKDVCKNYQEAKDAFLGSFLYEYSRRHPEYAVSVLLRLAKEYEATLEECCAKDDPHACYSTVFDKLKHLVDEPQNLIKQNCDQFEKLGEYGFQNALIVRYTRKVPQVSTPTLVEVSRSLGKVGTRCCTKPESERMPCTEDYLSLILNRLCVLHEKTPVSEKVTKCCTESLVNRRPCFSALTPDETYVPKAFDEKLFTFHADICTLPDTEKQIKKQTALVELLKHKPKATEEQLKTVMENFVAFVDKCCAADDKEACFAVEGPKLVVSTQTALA
Description: FIG. 2A is an SPR sensorgram of thin fibrin layer immobilized on surface the SPR channel via NHS/EDC activated carboxylic acid terminated SAM with subsequent injections of fibrinogen (1), ethanolamine quencher (2), HEPES buffer+Tween 20 (3), thrombin (4), and fibrinogen+anti-thrombin+heparin (5). FIGS. 2B-2K are representative SPR sensorgrams of scFvs on fibrin layer (FIGS. 2B-2F) or BSA surface (FIGS. 2G-2K) for clones A2 (FIGS. 2B and 2G), A6 (FIGS. 2C and 2H), H6 (FIGS. 2D and 2I), B3 (FIGS. 2E and 2J), or non-specific control (FIGS. 2F and 2K). Experimental data is shown in black and fits are shown in dotted line.
Based on previous SPR protocols developed in the lab^4, a thin fibrin layer was immobilized on the surface of a gold SPR chip via layer-by-layer deposition of fibrinogen-thrombin-fibrinogen^3. SdFvs were flowed across the fibrin surface and the binding interactions were evaluated and recorded. Additionally, antibody fragment binding interactions with a surface of immobilized fibrinogen was used to investigate the specificity to fibrin. All SPR data was examined and analyzed with Scrubber 2 and Clamp XP (Center for Biomolecular Interactions Analysis, University of Utah). Data simulation curves were generated based on a Langmuir 1:1 binding model assuming only a single ligand-analyte interaction.

Molecule | clot degradation (fibrin clots) | binding to BSA (BSA)
B1 | more resistant to degradation | –
B2 | – | negligible binding
